By stoichiometry N is commonly meant the number of molecules, sites or subunits per partner or assembly.

B1: Flotillin-2 (natural protein, human (endogenous in RBCs), UniProt Q14254 1-428, looked up)
chain: MGNCHTVGPNEALVVSGGCCGSDYKQYVFGGWAWAWWCISDTQRISLEIMTLQPRCEDVETAEGVALTVTGVAQVKIMTEKELLAVACEQFLGKNVQDIKNVVLQTLEGHLRSILGTLTVEQIYQDRDQFAKLVREVAAPDVGRMGIEILSFTIKDVYDKVDYLSSLGKTQTAVVQRDADIGVAEAERDAGIREAECKKEMLDVKFMADTKIADSKRAFELQKSAFSEEVNIKTAEAQLAYELQGAREQQKIRQEEIEIEVVQRKKQIAVEAQEILRTDKELIATVRRPAEAEAHRIQQIAEGEKVKQVLLAQAEAEKIRKIGEAEAAVIEAMGKAEAERMKLKAEAYQKYGDAAKMALVLEALPQIAAKIAAPLTKVDEIVVLSGDNSKVTSEVNRLLAELPASVHALTGVDLSKIPLIKKATGVQV
notes: flotillin-2, human, SwissProt Q14254; source: endogenous, membranes of stored human RBCs and storage-induced microvesicles, 1% deoxycholate extract
B2: band 3 (natural protein, human (endogenous in RBCs), UniProt P02730 1-911, looked up)
chain: MEELQDDYEDMMEENLEQEEYEDPDIPESQMEEPAAHDTEATATDYHTTSHPGTHKVYVELQELVMDEKNQELRWMEAARWVQLEENLGENGAWGRPHLSHLTFWSLLELRRVFTKGTVLLDLQETSLAGVANQLLDRFIFEDQIRPQDREELLRALLLKHSHAGELEALGGVKPAVLTRSGDPSQPLLPQHSSLETQLFCEQGDGGTEGHSPSGILEKIPPDSEATLVLVGRADFLEQPVLGFVRLQEAAELEAVELPVPIRFLFVLLGPEAPHIDYTQLGRAAATLMSERVFRIDAYMAQSRGELLHSLEGFLDCSLVLPPTDAPSEQALLSLVPVQRELLRRRYQSSPAKPDSSFYKGLDLNGGPDDPLQQTGQLFGGLVRDIRRRYPYYLSDITDAFSPQVLAAVIFIYFAALSPAITFGGLLGEKTRNQMGVSELLISTAVQGILFALLGAQPLLVVGFSGPLLVFEEAFFSFCETNGLEYIVGRVWIGFWLILLVVLVVAFEGSFLVRFISRYTQEIFSFLISLIFIYETFSKLIKIFQDHPLQKTYNYNVLMVPKPQGPLPNTALLSLVLMAGTFFFAMMLRKFKNSSYFPGKLRRVIGDFGVPISILIMVLVDFFIQDTYTQKLSVPDGFKVSNSSARGWVIHPLGLRSEFPIWMMFASALPALLVFILIFLESQITTLIVSKPERKMVKGSGFHLDLLLVVGMGGVAALFGMPWLSATTVRSVTHANALTVMGKASTPGAAAQIQEVKEQRISGLLVAVLVGLSILMEPILSRIPLAVLFGIFLYMGVTSLSGIQLFDRILLLFKPPKYHPDVPYVKRVKTWRMHLFTGIQIICLAVLWVVKSTPASLALPFVLILTVPLRRVLLPLIFRNVELQCLDADDAKATFDEEEGRDEYDEVAMPV
notes: band 3 anion transporter of the human red blood cell membrane; bait captured with the anti-band 3 antibodies BRIC 6 and BRIC 170; Captured as native 'band 3 complexes' with no distinction between ankyrin, junctional and free complexes; also called band 3 complexes; source: endogenous, membranes of stored human RBCs and storage-induced microvesicles, 1% deoxycholate extract

The target in data set [1] is B2. In words: co-IP; band 3 complexes captured from 1% deoxycholate extracts of RBC membranes (short- and long-stored ECs, bags A-C) on beads coated with BRIC 6 and BRIC 170; eluates analysed by western blot (ADSL, α-adducin, flotillin-2), densitometry relative to Ponceau loading. The settings on record: partners not purified. In general terms: Immunoblotting shows a protein as a band on a membrane.

Data set [2] deals with B2. As to the kind of experiment: co-IP; band 3 complexes captured from 1% deoxycholate extracts of storage-induced microvesicles (bags D-F; compared with RBCs of the same bags) on beads coated with BRIC 6 and BRIC 170; eluates analysed by western blot for flotillin-2, densitometry. Conditions: partners not purified.
Data set [3] deals with the molecule itself. In words: SDS-PAGE; band around 220 kDa on Coomassie-stained SDS-PAGE of total membrane proteins and co-IP eluates from RBCs and MVs.

On to B1, for which the “fold change of the amount in band 3 complexes, long-stored against short-stored ECs” value with band 3 [1] stood at 1.6 fold. For the same molecule, the “fold decrease of the amount in band 3 complexes, MVs against RBCs” value with band 3 [2] was determined as 1.3 fold.
Take B2: in data set [3], the “stoichiometry N” value came to 2.

The values are drawn from article PMC5945891, “Proteomics of Stored Red Blood Cell Membrane and Storage-Induced Microvesicles Reveals the Association of Flotillin-2 With Band 3 Complexes” (Frontiers in Physiology, 2018).
